Molecular target: Id(λ2^315)-peptide (amino acids 91 to 101) presented on I-E^d (mouse, UniProt P01904 26-216; P01915 32-225)
Experiment: cell-based or functional assay

Sequence of Id(λ2^315)-peptide (amino acids 91 to 101) presented on I-E^d (P01904 26-216, chain 1 of 2): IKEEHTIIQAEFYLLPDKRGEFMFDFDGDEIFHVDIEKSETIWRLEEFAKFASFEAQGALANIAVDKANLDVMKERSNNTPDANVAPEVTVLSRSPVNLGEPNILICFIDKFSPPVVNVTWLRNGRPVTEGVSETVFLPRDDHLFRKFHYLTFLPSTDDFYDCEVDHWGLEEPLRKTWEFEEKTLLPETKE
Sequence of Id(λ2^315)-peptide (amino acids 91 to 101) presented on I-E^d (P01915 32-225, chain 2 of 2): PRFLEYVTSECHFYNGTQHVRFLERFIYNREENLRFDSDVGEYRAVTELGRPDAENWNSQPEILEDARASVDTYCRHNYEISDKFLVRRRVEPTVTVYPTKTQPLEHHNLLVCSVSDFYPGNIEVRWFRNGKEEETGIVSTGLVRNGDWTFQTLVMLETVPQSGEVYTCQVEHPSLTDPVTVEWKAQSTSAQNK

- light emissions (NF-κB-luciferase bioluminescence in vivo, 24 hours after transfer of Id^+ splenocytes into RAG2^-/^- mice carrying Id-specific Luc^+ T cells): 4 fold
B1: Id-specific αβ TCR specific for the Id(λ2^315)-peptide (amino acids 91 to 101) presented on I-E^d (TCR, V domains shown)
V domain 1: QQKVQQSPESLIVPEGAMTSLNCTFSDSASQYFAWYRQQSGKAPKALMSIFSNGEKEEGRFTIHLNKASLHFSLHIRDSQPSDSALYLCAVRGPNTGNYKYVFGAGTRLKVIA
V domain 2: EAAVTQSPRNKVAVTGGKVTLSCNQTNNHNNMYWYRQDTGHGLRLIHYSYGAGSTEKGDIPDGYKASRPSQENFSLILELATPSQTSVYFCASGDAGQGHSDYTFGSGTRLLVI
